According to patent US20110008829A1 (University of California, published 2011):

B4: HMGR alone (enzyme, Saccharomyces cerevisiae, UniProt P12683 554-1054, looked up)
chain: VLTNKTVISGSKVKSLSSAQSSSSGPSSSSEEDDSRDIESLDKKIRPLEELEALLSSGNTKQLKNKEVAALVIHGKLPLYALEKKLGDTTRAVAVRRKALSILAEAPVLASDRLPYKNYDYDRVFGACCENVIGYMPLPVGVIGPLVIDGTSYHIPMATTEGCLVASAMRGCKAINAGGGATTVLTKDGMTRGPVVRFPTLKRSGACKIWLDSEEGQNAIKKAFNSTSRFARLQHIQTCLAGDLLFMRFRTTTGDAMGMNMISKGVEYSLKQMVEEYGWEDMEVVSVSGNYCTDKKPAAINWIEGRGKSVVAEATIPGDVVRKVLKSDVSALVELNIAKNLVGSAMAGSVGGFNAHAANLVTAVFLALGQDPAQNVESSNCITLMKEVDGDLRISVSMPSIEVGTIGGGTVLEPQGAMLDLLGVRGPHATAPGTNARQLARIVACAVLAGELSLCAALAAGHLVQSHMTHNRKPAEPTKPNNLDATDINRLKDGSVTCIKS
notes: Control prey of the GST pull-down; also called HMGR prey without an N-terminal SH3 domain

What was measured:
[1] = biological target: T1, WASP GBD (GTPase Binding Domain of rat N-WASP, residues 196-274) (rat, UniProt O08816 196-274); experiment: method not described; footnote: affinities reported as measured in trans
T1 construct: range 196-274; also called rat N-WASP GBD
T1 sequence (O08816 196-274 limits assumed): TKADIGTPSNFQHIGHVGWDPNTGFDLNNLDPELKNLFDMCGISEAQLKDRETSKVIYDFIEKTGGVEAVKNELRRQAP

[2] = biological target: T2, Crk SH3 (SH3 domain of mouse Crk, residues 134-191) (mouse, UniProt Q64010 134-191); experiment: as above
T2 construct: range 134-191; also called mouse Crk SH3 domain
T2 sequence (Q64010 134-191 limits assumed): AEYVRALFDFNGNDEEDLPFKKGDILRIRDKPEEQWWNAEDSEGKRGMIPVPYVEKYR

[3] = biological target: T3, Syn PDZ (PDZ domain of mouse α-syntrophin, residues 77-171) (mouse, UniProt Q61234 77-171); experiment: as above
T3 construct: range 77-171; also called Mouse α-syntrophin (syn) PDZ domain
T3 sequence (looked up): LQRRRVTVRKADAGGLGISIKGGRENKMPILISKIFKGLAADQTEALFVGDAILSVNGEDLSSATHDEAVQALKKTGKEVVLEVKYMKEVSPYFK

[4] = biological target: T4, N-terminal GST-tagged HMGS with 1 C-terminal SH3 peptide ligand (Saccharomyces cerevisiae, UniProt P54839 1-491); experiment: GST pull-down, GST-HMGS as bait, HMGR as prey
T4 construct: Bait of the GST pull-down; also called HMGS bait with 1 SH3 ligand; not shown: glutathione S-transferase (GST) tag at the N-terminus
T4 sequence: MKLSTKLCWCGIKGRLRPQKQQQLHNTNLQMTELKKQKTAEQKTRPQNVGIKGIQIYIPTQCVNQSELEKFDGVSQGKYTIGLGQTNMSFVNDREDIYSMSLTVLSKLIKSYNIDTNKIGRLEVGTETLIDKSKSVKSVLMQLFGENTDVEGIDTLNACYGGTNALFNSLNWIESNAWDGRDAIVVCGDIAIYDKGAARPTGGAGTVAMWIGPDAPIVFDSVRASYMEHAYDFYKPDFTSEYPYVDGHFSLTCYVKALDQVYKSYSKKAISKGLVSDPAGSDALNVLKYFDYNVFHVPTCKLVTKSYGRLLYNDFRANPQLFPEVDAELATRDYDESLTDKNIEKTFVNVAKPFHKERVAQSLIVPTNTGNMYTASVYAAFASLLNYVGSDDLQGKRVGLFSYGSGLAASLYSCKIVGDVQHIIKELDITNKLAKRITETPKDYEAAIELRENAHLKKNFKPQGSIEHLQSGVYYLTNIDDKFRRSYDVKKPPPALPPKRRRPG
Source text: (§1) As a direct test of engineered enzyme co-recruitment, the bottleneck enzymatic step of the mevalonate biosynthetic pathway (HMGR-catalyzed turnover of HMG-CoA to mevalonate) was targeted for flux improvement. A synthetic complex of HMGS and HMGR was created by recombining a varying number of SH3 (Src Homology 3 domain from the adapter protein CRK) interaction ligands to the C-terminus of HMGS and recombining an SH3 domain to the N-terminus of HMGR (FIG. 2a). This simple design also allowed for control over the relative ratio of these two enzymes at the resultant complex. The ability of these proteins to interact in an SH3-dependent manner was probed in a GST pull-down experiment (FIG. 2b). […] As prey, an SH3 domain was recombined to the N-terminus of HMGR and compared to HMGR alone. No significant interaction was observed between HMGS and HMGR without engineered SH3 interactions. However, HMGR with an N-terminal SH3 domain was pulled down by GST-tagged HMGS in a ligand-dependent manner. […] Thus, the relative stoichiometries of these two enzymes were controlled at the complex by varying the number of interaction ligands tethered to HMGS.

[5] = biological target: T5, HMGR with an N-terminal SH3 domain (mouse; Saccharomyces cerevisiae, UniProt Q64010 134-191; P12683 554-1054); experiment: GST pull-down, GST-HMGS as bait, HMGR as prey
T5 construct: also called SH3 domain recombined to the N-terminus of HMGR; HMGR prey with an N-terminal SH3 domain
Source text: as §1

[6] = biological target: B4; experiment: GST pull-down, GST-HMGS as bait, HMGR as prey
Source text: as §1

B1: GBD lig. (peptide)
peptide: LVGALMHVMQKRSRAIHSSDEGEDQAGDEDED
notes: also called GBD ligand
With B1 the Kd [1] was 1000 nM.

B2: SH3 lig. (peptide)
peptide: PPPALPPKRRRPG
notes: also called SH3 peptide ligand
Work on B2 yielded a Kd [2] of 100 nM.

B3: PDZ lig. (peptide)
peptide: GVKESLV
notes: also called PDZ ligand; GVKESLV
B3 showed a Kd [3] of 8 µM.

B4: no binding [4].

B5: N-terminal GST-tagged HMGS with 0 C-terminal SH3 peptide ligands (enzyme, UniProt P54839 1-491, looked up)
chain: MKLSTKLCWCGIKGRLRPQKQQQLHNTNLQMTELKKQKTAEQKTRPQNVGIKGIQIYIPTQCVNQSELEKFDGVSQGKYTIGLGQTNMSFVNDREDIYSMSLTVLSKLIKSYNIDTNKIGRLEVGTETLIDKSKSVKSVLMQLFGENTDVEGIDTLNACYGGTNALFNSLNWIESNAWDGRDAIVVCGDIAIYDKGAARPTGGAGTVAMWIGPDAPIVFDSVRASYMEHAYDFYKPDFTSEYPYVDGHFSLTCYVKALDQVYKSYSKKAISKGLVSDPAGSDALNVLKYFDYNVFHVPTCKLVTKSYGRLLYNDFRANPQLFPEVDAELATRDYDESLTDKNIEKTFVNVAKPFHKERVAQSLIVPTNTGNMYTASVYAAFASLLNYVGSDDLQGKRVGLFSYGSGLAASLYSCKIVGDVQHIIKELDITNKLAKRITETPKDYEAAIELRENAHLKKNFKPQGSIEHLQSGVYYLTNIDDKFRRSYDVKK
notes: Bait of the GST pull-down; also called HMGS bait with 0 SH3 ligands; not shown: glutathione S-transferase (GST) tag at the N-terminus
B5: no binding [5]; no binding [6].
